FRET efficiency data for one substance are collected here from patent US20060058189A1.

This assay concerns the target PpFtsZ2-1-CFP fusion protein (Physcomitrella patens). Briefly: FRET by acceptor photobleaching, confocal microscopy, cotransfected Physcomitrella protoplasts (FtsZ2-1-CFP donor, FtsZ1-1-YFP acceptor).

Substance PpFtsZ1-1-YFP fusion protein displayed an FRET efficiency of 36.5%.
